In patent US6673902B2, “Cyclin D binding factor, and uses thereof” (St. Jude Children's Research Hospital, priority 1996, dated 2004):

B1: cyclin H: cyclin coexpressed with DMP1 (protein, UniProt Q61458 1-323, looked up)
Cyclin-H: MYHSSSQKRHWTFASEEQLARLRADANRKFKCKAVANGKVLPNDPVFLEPHEELTLCKYYEKRLLEFCSVFKPAMPRSVVGTACMYFKRFYLNNSVMEYHPRIIMLTCAFLACKVDEFNVSSPQFVGNLRESPLGQERALEQILEYELLLIQQLNFHLIVHNPYRPFEGFLIDIKTRYPMLENPEILRKTADDFLSRIALTDAYLLYTPSQIALTAILSSASRAGITMESYLSESLMLKENRTCLSQLLDIMKSMRNLVKKYEPPRSDEVAVLKQKLERCHSSDLALNAVTKKRKGYEDDDYVSKKPKQEEEEWTDDDLVDSL
B2: Ets1: Ets family transcription factor (protein, UniProt P27577 1-440, looked up)
Protein C-ets-1: MKAAVDLKPTLTIIKTEKVDLELFPSPDMECADVPLLTPSSKEMMSQALKATFSGFTKEQQRLGIPKDPRQWTETHVRDWVMWAVNEFSLKGVDFQKFCMSGAALCALGKECFLELAPDFVGDILWEHLEILQKEDVKPYQVNGANPTYPESCYTSDYFISYGIEHAQCVPPSEFSEPSFITESYQTLHPISSEELLSLKYENDYPSVILQDPLQTDTLQTDYFAIKQEVLTPDNMCLGRASRGKLGGQDSFESVESYDSCDRLTQSWSSQSSFNSLQRVPSYDSFDYEDYPAALPNHKPKGTFKDYVRDRADLNKDKPVIPAAALAGYTGSGPIQLWQFLLELLTDKSCQSFISWTGDGWEFKLSDPDEVARRWGKRKNKPKMNYEKLSRGLRYYYDKNIIHKTAGKRYVYRFVCDLQSLLGYTPEELHAMLDVKPDAD

Assays:
Type in all cases: cell-based, mouse
[1] = test system: DMP1-responsive promoter (pGL2BS2); experiment: Transactivation of luciferase reporter plasmid under control of a DMP1-responsive promoter in NIH-3T3 fibroblasts; details: Table 4; DMP1 coexpressed with the additive named as label (DMP1 row: no additive); vector without insert set to 1.0
From the text: Coexpression of a D-type cyclin with DMP1 overrides the ability of DMP1 to transactivate a luciferase gene under the control of an artificial DMP1-responsive promoter (Table 4), as well as the ability of DMP1 to inhibit cell growth.

[2] = test system: 281 bp ARF promoter fragment; experiment: Transactivation of ARF promoter-luciferase reporter in NIH-3T3 cells; details: NIH-3T3, 281 bp ARF promoter fragment-luciferase
Method: Transactivation assays. NIH-3T3 cells were transfected with 4 μg of pGL2-ARFpro BamHI or its DMP1 binding site mutant, with or without increasing amount of pFLEX-DMP1, pEVRFO-Ets1, pCMV-Ets2, pRcRSV-Elfl, pdEB-Fli1, p(IEB-EWS-Fli1 or pCMV-E2F-1 (89-437), and 4 μg β-actin SEAP control vectors [Inoue and Sherr, Mol. Cell. Biol. 18: 1590-1600 (1998); Inoue et al., J. Biol. Chem. 273:29188-29194 (1998); Davis and Roussel, Gene 171:265-269 (1996); Baily et al., Mol. Cell. Biol. 14:3230-3241 (1994)]. Transfections and normalization of luciferase levels with internal control SEAP levels were performed as described [Inoue and Sherr, Mol. Cell. Biol. 18:1590-1600 (1998)].
Similarly, DMP1 deletion mutants defective in transactivation [Inoue and Sherr, Mol. Cell. […] Mutation of the DMP1 binding site within the ARF promoter [changing CCCGGATGC, (SEQ ID NO:33) to CCCGTCGAC, (SEQ ID NO:42)] also completely abolished transactivation by wild-type DMP1 (FIG. 14C, mutant reporter). Therefore, sequences within the −189 to −181 ARF promoter segment were the only ones responsible for DMP1-mediated transactivation. Although Ets1 could bind to a 23 base pair oligonucleotide containing the DMP1 consensus site (FIG. 14B), several Ets proteins were unable to induce significant reporter gene expression from the more complex 281 base pair ARF promoter (FIG. 14C). […]

ARF-null MEFs = experiment: BrdU incorporation / cell cycle arrest in ARF-null MEFs; details: retroviral infection
Method: (§1) BrdU incorporation and immunofluorescence. Wild-type or ARF-null MEFs (4×10^4 cells) were seeded on gelatin-coated coverslips 16 hours before virus infection. Cells were infected three times with empty vector, or vectors expressing murine DMP1, human c-Myc, human E2F-1, or human Ets1. Cells were labeled 36 hours after virus infection with bromodeoxyuridine (BrdU, Sigma) for 14 hours in complete medium. For pulse labeling, MEFs were treated with 2 μM4-HT for 36 hours and labeled with BrdU for three hours at different intervals throughout the inductive phase. Cells were fixed in ice-cold methanol-acetone (1:1) for 10 min at −20° C. and then were stained with affinity-purified antibodies to DMP1 (AF) [Hirai and Sherr, Mol. Cell. […]
(§2) Based on the above observations, it was determined as to whether introduction of DMP1 would induce synthesis of the endogenous ARF protein in normal diploid fibroblast strains. […] Although the blot was normalized for protein input, the levels of p19^ARF induced by DMP1 were calculated to be 2-fold higher than those induced by Myc, because fewer cells were productively infected with the DMP1 virus in this experiment (see FIG. 15A).

wild-type MEFs = experiment: BrdU incorporation / cell cycle arrest in wild-type MEFs; details: retroviral infection
Method: as §1, §2

Row | Molecule | Luciferase Activity [1] | ARF promoter reporter gene expression [2] | cell cycle arrest (ARF-null MEFs) | cell cycle arrest (wild-type MEFs)
1 | B1 | 5.5 | – | – | –
2 | B2 | – | slightly inhibitory | behaved indistinguishably from those infected with the control vector | behaved indistinguishably from those infected with the control vector
